From patent US7189837 (NEUROTECH S A, dated 2007)

B1: hTR-FcΔH (human transferrin receptor residues 1-97 fused to CH1 and hinge deleted human IgG1 heavy chain constant region), expressed on BHK cells (Fc fusion)
chain: MMDQARSAFSNLFGGEPLSYTRFSLARQVDGDNSHVEMKLAVDEEENADNNTKANVTKPKRCSGSICYGTIAVIVFFLIGFMIGYLGYCKGVEPKTEGSAPELLGGPSVFLFPPKPKDTLMISRTPEVTCVVVDVSHEDPEVKFNWYVDGVEVHNAKTKPREEQYNSTYRVVSVLTVLHQDWLNGKEYKCKVSNKALPAPIEKTISKAKGQPREPQVYTLPPSRDELTKNQVSLTCLVKGFYPSDIAVEWESNGQPENNYKTTPPVLDSDGSFFLYSKLTVDKSRWQQGNVFSCSVMHEALHNHYTQKSLSLSPGK
notes: also called BHK-FcΔH; BHK-FcΔH(3)

Columns and labels:
[1] = molecular target: hTR-FcΔH (human transferrin receptor residues 1-97 fused to CH1 and hinge deleted human IgG1 heavy chain constant region), expressed on BHK cells (human); assay: cell ELISA on BHK-FcΔH cells, goat anti-human IgG Fc alkaline phosphatase conjugate 1:1000, PNPP substrate
[2] = molecular target: T1, human FcγRI on interferon-γ-treated U937 cells (human, UniProt P12314 16-374); assay: inferred from Fc receptor-mediated superoxide production in U937 cells
T1 construct: whole, on cells; also called FcγR1; CD64
Experimental: To assess whether cell surface expression of reverse Fc was biologically active in terms of Fc receptor binding and complement fixation, Fc receptor-mediated superoxide production in the human monocyte-like cell line was examined. Superoxide was measured spectrophotometrically as a function of the cell's ability to reduce cytochrome c. Superoxide production was determined using the 96-well microtiter plate assay of Tao, et al., *J Leukoc Biol*, 58: 203–208 (1995). 25,000 cells/well of either BHK-WT (control), opsonized BHK cells, or BHK-reverse Fc clones were added to the assay plate containing either human monocyte-like U937 cells (ATCC, Rockville, Md.) pre treated with recombinant human interferon-γ (R&D Systems, Minneapolis, Minn.) or lavaged mouse peritoneal macrophages. The O_2-release was measured as the superoxide dismutase (SOD) inhibitable reduction of cytochrome c at 550 nm by using a ThermoMax Plate reader (Molecular Devices, Menlo Park, Calif.). The rate of O_2-production was monitored from time 0 to […] after stimulation.

T1 sequence (P12314 16-374): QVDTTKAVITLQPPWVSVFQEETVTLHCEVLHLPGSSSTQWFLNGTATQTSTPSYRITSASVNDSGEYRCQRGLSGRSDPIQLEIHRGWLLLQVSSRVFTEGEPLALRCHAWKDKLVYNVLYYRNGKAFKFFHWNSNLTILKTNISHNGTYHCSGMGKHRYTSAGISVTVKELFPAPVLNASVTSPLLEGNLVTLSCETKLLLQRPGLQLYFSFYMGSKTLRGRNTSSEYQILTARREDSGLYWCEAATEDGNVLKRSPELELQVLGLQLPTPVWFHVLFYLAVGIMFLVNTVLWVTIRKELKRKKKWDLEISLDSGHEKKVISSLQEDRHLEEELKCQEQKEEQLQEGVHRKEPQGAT

| Molecule | Cell Surface Fc (OD405) [1] [OD405] | binding result [2] |
| --- | --- | --- |
| Goat anti-human IgG Fc alkaline phosphatase conjugate (Sigma) (antibody) | 2.8 | – |
| B1 | – | binds |
